These results are taken from PMC3756332 (Scientific Reports, 2013).

The target of this assay is T1, rabbit cytochrome P450 2B4 (rabbit, UniProt P00178 1-491).
T1 sequence (looked up): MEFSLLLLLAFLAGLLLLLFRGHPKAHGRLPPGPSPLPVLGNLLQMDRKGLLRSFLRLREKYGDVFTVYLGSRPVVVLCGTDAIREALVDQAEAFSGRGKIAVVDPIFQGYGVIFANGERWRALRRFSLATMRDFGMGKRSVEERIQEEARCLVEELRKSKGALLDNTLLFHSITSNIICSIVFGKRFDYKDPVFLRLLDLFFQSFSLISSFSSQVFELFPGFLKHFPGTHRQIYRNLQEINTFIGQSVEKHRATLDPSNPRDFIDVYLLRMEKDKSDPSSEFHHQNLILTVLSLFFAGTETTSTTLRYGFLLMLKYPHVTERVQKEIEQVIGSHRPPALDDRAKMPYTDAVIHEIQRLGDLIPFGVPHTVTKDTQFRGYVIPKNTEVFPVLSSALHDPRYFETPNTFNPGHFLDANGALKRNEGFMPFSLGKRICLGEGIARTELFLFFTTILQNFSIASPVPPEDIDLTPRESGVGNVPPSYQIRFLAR
Briefly: type I spectral change.

B1: rabbit cytochrome b5 (natural protein, UniProt P00169 1-134, looked up)
chain: MAAQSDKDVKYYTLEEIKKHNHSKSTWLILHHKVYDLTKFLEEHPGGEEVLREQAGGDATENFEDVGHSTDARELSKTFIIGELHPDDRSKLSKPMETLITTVDSNSSWWTNWVIPAISALIVALMYRLYMADD
modifications: uniformly 15N-labeled (in the NMR experiments)
On to B1, for which the binding result is on record as “binds”.
